Measurements published in article PMC10039049.

Target: extracellular leucine-rich repeat (LRR) domain of OsER1 (OsER1^LRR) (rice (Oryza sativa)) (UniProt Q69SP5)
Test: ITC; about 0.3 mM OsEPFL peptide injected (24 x 1.5 uL) into 0.03 mM OsER1^LRR in the cell; ITC200, 25 °C, 10 mM Bis-Tris pH 6.0, 100 mM NaCl

Sequence of UniProt Q69SP5 (Q69SP5 25-577): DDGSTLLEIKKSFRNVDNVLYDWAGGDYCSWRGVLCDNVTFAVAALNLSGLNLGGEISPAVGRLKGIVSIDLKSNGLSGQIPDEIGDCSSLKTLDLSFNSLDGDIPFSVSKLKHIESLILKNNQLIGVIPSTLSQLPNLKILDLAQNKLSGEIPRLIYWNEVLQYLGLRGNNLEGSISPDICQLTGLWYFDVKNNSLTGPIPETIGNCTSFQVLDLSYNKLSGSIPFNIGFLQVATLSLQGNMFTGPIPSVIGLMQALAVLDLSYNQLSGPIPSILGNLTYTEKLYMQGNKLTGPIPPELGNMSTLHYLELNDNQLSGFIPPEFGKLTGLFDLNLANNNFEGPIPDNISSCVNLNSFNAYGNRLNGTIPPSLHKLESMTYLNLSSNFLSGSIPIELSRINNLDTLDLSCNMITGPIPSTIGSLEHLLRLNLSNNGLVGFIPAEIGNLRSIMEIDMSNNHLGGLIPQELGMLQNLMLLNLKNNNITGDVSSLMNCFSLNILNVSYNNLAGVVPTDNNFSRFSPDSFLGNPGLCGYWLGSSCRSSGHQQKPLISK

Kd [µM] | Substance
1.35 | predicted mature small peptide OsEPFL6
1.02 | predicted mature small peptide OsEPFL7
18.7 | predicted mature small peptide OsEPFL8
56.8 | predicted mature small peptide OsEPFL9
